Laboratory results: US20260022354, “TRANSPOSASES AND USES THEREOF” (Poseida Therapeutics, Inc., published 2026)

Target: T1, GFP1 Right TAL-PBx (synthetic)
T1 chain: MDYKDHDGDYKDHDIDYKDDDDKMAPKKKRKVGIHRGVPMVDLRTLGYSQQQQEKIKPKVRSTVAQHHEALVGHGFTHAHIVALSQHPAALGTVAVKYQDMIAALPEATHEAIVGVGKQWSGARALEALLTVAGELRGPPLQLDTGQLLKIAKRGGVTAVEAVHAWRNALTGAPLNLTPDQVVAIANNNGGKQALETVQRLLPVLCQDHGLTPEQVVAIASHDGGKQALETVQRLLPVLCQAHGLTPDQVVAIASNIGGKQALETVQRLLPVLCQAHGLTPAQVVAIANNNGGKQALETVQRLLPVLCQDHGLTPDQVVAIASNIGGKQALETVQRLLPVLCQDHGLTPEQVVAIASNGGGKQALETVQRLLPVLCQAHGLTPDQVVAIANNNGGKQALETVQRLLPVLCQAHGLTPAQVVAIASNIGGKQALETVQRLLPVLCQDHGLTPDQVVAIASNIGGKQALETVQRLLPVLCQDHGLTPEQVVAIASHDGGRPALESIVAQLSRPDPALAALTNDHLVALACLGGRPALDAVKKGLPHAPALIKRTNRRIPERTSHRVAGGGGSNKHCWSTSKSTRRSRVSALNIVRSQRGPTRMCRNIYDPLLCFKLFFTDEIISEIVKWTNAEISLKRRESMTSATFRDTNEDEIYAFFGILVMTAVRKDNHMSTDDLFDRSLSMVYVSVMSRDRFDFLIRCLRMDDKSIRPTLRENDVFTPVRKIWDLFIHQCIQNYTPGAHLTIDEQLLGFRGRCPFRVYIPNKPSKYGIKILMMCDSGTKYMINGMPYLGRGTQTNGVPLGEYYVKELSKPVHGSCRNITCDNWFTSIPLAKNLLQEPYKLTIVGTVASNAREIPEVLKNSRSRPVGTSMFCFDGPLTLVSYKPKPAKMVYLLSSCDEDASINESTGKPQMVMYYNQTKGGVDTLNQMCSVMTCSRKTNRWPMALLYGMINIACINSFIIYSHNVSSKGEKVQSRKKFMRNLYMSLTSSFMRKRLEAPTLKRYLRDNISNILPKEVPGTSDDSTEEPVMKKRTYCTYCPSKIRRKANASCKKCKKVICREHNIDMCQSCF
Assay: cell_activity; HEK293T
Conditions: tags: PBx fusion; chain copies: 2 (palindromic half-sites; inferred)
Method: Each reporter plasmid and donor plasmid were cotransfected into HEK293T cells with the GFP1 Right TAL-PBx expression plasmid (SEQ ID No. 77). […] HEK293T cells were plated in 24 well plates in 500 μL of DMEM medium supplemented with 10% FBS. The following day, a transfection mixture containing 50 ng of the TAL-ssSPB expression vector, 225 ng of the reporter plasmid, 225 ng of donor plasmid and 1 μL of JetPrime transfection reagent in a total volume of 50 μL of JetPrime buffer were assembled. The mixture was added to the HEK293T cells and the cells were incubated for four days at 37° C. at 5% CO2, splitting the cells 1:6 on day one. The percentage of on-target site-specific transposition positive cells for the various constructs were determined by FACS analysis on day 4.
When the reporter and donor plasmids are co-transfected into cells along with TAL-PBx, TAL-PBx catalyzes the excision of the transposon from the donor plasmid and its site-specific integration into the TTAA target site of the reporter plasmid. Following site-specific transposition, transcription, splicing, and translation, a reconstituted GFP coding sequence is produced (DNA SEQ ID No. 75; Amino acid SEQ ID No. 76) and fluorescence can be detected. The percentage of on-target site-specific transposition positive cells for the various spacer length constructs were determined by FACS analysis and the results are shown in Table 9.

| Binder | activity [% GFP+ cells] |
| --- | --- |
| GFP1 Right 12bp TTTAAA (dsDNA) DNA 1: TGCAGATGAACGCAATCTCCGGTTTAAATACTGACTGAAGTTCATCTGCA DNA 2: TGCAGATGAACTTCAGTCAGTATTTAAACCGGAGATTGCGTTCATCTGCA | 30.8 |
| GFP1 Right 12bp CTTAAA (dsDNA) DNA 1: TGCAGATGAACGCAATCTCCGGCTTAAATACTGACTGAAGTTCATCTGCA DNA 2: TGCAGATGAACTTCAGTCAGTATTTAAGCCGGAGATTGCGTTCATCTGCA | 34.6 |
| GFP1 Right 13bp CTTAAC (dsDNA) DNA 1: TGCAGATGAACGCAATCTCACGGCTTAACTACTGACCTGAAGTTCATCTGCA DNA 2: TGCAGATGAACTTCAGGTCAGTAGTTAAGCCGTGAGATTGCGTTCATCTGCA | 20.9 |
| GFP1 Right 13bp TTTAAA (dsDNA) DNA 1: TGCAGATGAACGCAATCTCACGGTTTAAATACTGACCTGAAGTTCATCTGCA DNA 2: TGCAGATGAACTTCAGGTCAGTATTTAAACCGTGAGATTGCGTTCATCTGCA | 27 |
| GFP1 Right 13bp CTTAAA (dsDNA) DNA 1: TGCAGATGAACGCAATCTCACGGCTTAAATACTGACCTGAAGTTCATCTGCA DNA 2: TGCAGATGAACTTCAGGTCAGTATTTAAGCCGTGAGATTGCGTTCATCTGCA | 32.8 |
| GFP1 Right 13bp TTTAAG (dsDNA) DNA 1: TGCAGATGAACGCAATCTCACGGTTTAAGTACTGACCTGAAGTTCATCTGCA DNA 2: TGCAGATGAACTTCAGGTCAGTACTTAAACCGTGAGATTGCGTTCATCTGCA | 32.2 |
| GFP1 Right 13bp CTTAAG (dsDNA) DNA 1: TGCAGATGAACGCAATCTCACGGCTTAAGTACTGACCTGAAGTTCATCTGCA DNA 2: TGCAGATGAACTTCAGGTCAGTACTTAAGCCGTGAGATTGCGTTCATCTGCA | 24.7 |
